Laboratory results reported in doi:10.1101/2024.06.04.597356.

Biological target: CspA (UniProt P0A9X9 1-70)
Assay: molecular beacon unfolding

CspA, sequence (P0A9X9 whole entry): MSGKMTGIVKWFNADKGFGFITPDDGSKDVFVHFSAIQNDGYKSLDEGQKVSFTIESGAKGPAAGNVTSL

B1: 78-nt molecular beacon (structured_DNA)
DNA: AGGGTTCTTTGTGGTGTTTTTATCTGTGCTTCCCTATGCACCGCCGACGACAGTCGCTAACCTCTCGCTAAGAACCCT
B1: binds.
